Measurements reported in patent publication US20100311184A1, “AZO HETEROCYCLIC DYES AND THEIR BIOLOGICAL CONJUGATES” (AAT BIOQUEST, INC., priority 2009, published 2010).
Where no end group is shown, it is not given here. Compound 12 = dye made from 2-amino-6-nitrobenzothiazole and 3-(1'-oxo-3'-carboxypropylamino)-N,N-dimethylaniline

Target: HIV-1 protease (Human immunodeficiency virus type 1 group M subtype B, UniProt P04585)
Assay: Fluorogenic HIV protease assay with FRET peptides (FIG. 3)
Assay type: biochemical
Settings: FRET peptide substrate, purified enzyme
From the text: Inhibition of HIV-1 protease represents an important avenue for AIDS therapy. Currently combination chemotherapy of reverse transcriptase inhibitors and protease inhibitors have shown to suppress the replication of HIV-1 and extend the life expectancy of HIV-1-infected individuals. The following FRET peptides of the instant disclosure are screened for developing a fluorogenic HIV protease assay. The enzyme assays are done with purified enzymes. Absorption spectra were taken with Hitachi U-3010. Endpoint fluorescence assays are run on either BMG NovoStar or Gemini SpectraMax (Molecular Devices). Enzyme kinetic assays are run on FlexStation (Molecular Devices). […] FRET Peptides #6 and #7 might be used for monitoring HIV protease activity in combination with a flow cytometer.
All the above FRET peptides are synthesized using the standard FMOC chemistry. Some of the TQ peptides were prepared using FMOC-Lys (Compound 12)-OH. For the post-labeling of the premade peptides, Dye NHS esters were used for labeling N-terminal amino or ε-amino group of lysine residue. Dye maleimides were used for labeling the SH group of cysteine residues.

## Arg-Glu(5-TAMRA)-Val-Ser-Phe-Asn-Phe-Pro-Gln-Ile-Thr-Lys(Compound 12)-Arg ({Arg-Glu(5-TAMRA)}-VSFNFPQITK(Compound 12)R) [FRET peptide #2]
  response to HIV-1 protease: excellent response
